One block for each substance: values may come before it.
Key:
cap2_human CAP2 = cap2_human CAP2 (UniProt P40123)
cof2_human CFL2 = cof2_human CFL2 (UniProt Q9Y281)
tfcp2_human TFCP2 [1] = target: tfcp2_human TFCP2 (UniProt Q12800)
goga2_human GOLGA2 [2] = target: goga2_human GOLGA2 (UniProt Q08379)
cep70_human CEP70 = target: T1, cep70_human CEP70 (UniProt Q8NHQ1)
T1 sequence: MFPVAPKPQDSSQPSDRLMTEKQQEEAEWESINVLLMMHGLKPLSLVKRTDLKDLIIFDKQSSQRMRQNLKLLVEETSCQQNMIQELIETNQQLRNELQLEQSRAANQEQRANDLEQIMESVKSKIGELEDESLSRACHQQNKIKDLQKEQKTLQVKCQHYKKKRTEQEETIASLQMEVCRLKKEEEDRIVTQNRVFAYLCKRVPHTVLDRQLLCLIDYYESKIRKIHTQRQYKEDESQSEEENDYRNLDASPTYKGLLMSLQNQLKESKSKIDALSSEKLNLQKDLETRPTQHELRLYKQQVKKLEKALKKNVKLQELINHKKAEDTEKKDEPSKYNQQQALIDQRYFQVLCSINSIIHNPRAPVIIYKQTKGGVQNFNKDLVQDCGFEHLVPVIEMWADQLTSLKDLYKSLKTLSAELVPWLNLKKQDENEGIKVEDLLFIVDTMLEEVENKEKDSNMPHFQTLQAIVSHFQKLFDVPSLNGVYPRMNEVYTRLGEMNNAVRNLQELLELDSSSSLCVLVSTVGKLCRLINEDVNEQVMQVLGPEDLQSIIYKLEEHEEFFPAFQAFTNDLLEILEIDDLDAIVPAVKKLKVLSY

tsg10_human TSGA10 = tsg10_human TSGA10 (UniProt Q9BZW7)
tfcp2_human TFCP2 [3] = target: tfcp2_human TFCP2 (UniProt Q12800); remark: listed apart in the source
fsd2_human FSD2 = target: T2, fsd2_human FSD2 (UniProt A1L4K1)
T2 sequence: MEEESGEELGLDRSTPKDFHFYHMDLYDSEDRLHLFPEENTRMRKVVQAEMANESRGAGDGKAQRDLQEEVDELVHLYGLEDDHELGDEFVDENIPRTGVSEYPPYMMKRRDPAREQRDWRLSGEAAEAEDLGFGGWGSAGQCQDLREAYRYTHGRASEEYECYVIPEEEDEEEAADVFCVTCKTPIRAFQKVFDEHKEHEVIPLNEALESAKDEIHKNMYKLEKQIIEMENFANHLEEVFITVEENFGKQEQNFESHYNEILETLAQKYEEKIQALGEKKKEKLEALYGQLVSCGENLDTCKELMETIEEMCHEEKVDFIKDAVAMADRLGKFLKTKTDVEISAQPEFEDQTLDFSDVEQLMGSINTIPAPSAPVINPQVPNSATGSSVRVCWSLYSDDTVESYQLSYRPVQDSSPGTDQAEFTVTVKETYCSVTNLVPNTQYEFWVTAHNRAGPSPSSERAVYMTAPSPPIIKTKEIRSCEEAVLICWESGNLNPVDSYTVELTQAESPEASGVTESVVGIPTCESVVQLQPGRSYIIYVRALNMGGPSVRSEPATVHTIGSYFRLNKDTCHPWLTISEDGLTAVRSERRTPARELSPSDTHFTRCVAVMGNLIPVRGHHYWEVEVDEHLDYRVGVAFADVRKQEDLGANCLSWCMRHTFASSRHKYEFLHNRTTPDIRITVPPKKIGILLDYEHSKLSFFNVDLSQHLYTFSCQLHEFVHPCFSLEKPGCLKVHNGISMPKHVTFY

hem1_human ALAS1 = hem1_human ALAS1 (UniProt P13196)
kash5_human KASH5 = target: T3, kash5_human KASH5 (UniProt Q8N6L0)
T3 sequence: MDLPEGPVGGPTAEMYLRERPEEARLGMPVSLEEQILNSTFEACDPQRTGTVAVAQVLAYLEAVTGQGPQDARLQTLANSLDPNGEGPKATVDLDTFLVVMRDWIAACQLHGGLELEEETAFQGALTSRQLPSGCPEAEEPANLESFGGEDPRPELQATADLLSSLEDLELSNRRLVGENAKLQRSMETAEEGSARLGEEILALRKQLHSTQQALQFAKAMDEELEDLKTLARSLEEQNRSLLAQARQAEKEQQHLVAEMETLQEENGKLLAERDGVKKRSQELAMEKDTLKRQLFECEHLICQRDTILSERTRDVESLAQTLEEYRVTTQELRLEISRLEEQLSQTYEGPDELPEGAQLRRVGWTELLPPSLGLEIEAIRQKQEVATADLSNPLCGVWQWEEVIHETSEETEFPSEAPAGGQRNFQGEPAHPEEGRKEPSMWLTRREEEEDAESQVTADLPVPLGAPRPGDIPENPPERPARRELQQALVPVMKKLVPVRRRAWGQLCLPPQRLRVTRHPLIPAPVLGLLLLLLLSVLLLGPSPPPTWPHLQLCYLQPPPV

SYNE4, Q8N205-2 = target: T4, SYNE4, Q8N205-2
T4 sequence: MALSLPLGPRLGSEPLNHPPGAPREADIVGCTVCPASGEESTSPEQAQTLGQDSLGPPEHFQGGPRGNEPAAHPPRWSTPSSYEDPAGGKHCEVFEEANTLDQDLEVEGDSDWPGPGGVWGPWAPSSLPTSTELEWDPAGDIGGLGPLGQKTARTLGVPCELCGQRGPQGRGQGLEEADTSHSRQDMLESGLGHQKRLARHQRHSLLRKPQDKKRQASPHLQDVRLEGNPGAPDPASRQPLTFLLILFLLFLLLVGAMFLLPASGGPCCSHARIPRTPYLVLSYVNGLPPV

tmm79_human TMEM79 [4] = target: T5, tmm79_human TMEM79 (UniProt Q9BSE2)
T5 sequence: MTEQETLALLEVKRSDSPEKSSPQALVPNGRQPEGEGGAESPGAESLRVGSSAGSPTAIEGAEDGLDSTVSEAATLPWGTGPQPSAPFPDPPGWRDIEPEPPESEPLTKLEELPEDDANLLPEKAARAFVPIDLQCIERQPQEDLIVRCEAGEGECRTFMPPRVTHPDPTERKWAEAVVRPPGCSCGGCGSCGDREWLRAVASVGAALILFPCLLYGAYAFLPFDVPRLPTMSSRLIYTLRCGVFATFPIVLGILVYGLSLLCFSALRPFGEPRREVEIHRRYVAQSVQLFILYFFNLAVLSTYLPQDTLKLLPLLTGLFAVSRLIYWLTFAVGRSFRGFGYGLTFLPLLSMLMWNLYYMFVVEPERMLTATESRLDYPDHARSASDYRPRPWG

smim3_human SMIM3 [5] = target: T6, smim3_human SMIM3 (UniProt Q9BZL3)
T6 sequence: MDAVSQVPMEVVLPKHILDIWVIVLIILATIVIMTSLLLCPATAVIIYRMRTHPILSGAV

tmm79_human TMEM79 [6] = target: T5, tmm79_human TMEM79; remark: listed apart in the source
smim3_human SMIM3 [7] = target: T6, smim3_human SMIM3; remark: listed apart in the source
kxdl1_human KXD1 = kxdl1_human KXD1 (UniProt Q9BQD3)
ifit3_human IFIT3 [8] = target: ifit3_human IFIT3 (UniProt O14879)
syce1_human SYCE1 = syce1_human SYCE1 (UniProt Q8N0S2)
tfpt_human TFPT = tfpt_human TFPT (UniProt P0C1Z6)
ifit3_human IFIT3 [9] = target: ifit3_human IFIT3 (UniProt O14879); remark: listed apart in the source
md1l1_human MAD1L1 = md1l1_human MAD1L1 (UniProt Q9Y6D9)
goga2_human GOLGA2 [10] = target: goga2_human GOLGA2 (UniProt Q08379); remark: listed apart in the source
efhc2_human EFHC2 = target: T7, efhc2_human EFHC2 (UniProt Q5JST6)
T7 sequence: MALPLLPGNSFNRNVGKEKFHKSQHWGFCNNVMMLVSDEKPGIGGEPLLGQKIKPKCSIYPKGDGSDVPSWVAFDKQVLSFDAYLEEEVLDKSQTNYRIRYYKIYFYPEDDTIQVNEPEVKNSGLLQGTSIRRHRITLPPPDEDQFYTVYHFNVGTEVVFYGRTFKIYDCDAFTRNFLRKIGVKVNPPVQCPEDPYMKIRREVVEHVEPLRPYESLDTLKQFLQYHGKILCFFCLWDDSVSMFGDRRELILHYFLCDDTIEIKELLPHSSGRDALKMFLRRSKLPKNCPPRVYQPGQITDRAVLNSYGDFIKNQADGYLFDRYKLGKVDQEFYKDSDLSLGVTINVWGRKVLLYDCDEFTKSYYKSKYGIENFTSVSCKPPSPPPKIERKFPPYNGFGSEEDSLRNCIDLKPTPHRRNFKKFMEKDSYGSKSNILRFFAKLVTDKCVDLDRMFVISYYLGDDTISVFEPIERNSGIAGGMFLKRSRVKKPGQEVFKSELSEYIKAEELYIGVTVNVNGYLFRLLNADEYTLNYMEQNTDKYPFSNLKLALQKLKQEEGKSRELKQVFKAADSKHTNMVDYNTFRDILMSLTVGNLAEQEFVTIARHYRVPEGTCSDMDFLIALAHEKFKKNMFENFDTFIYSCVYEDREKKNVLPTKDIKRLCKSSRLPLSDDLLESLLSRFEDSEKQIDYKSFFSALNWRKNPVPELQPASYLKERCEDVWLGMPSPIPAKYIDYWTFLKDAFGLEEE

Tropomyosin alpha-1 chain (Homo sapiens), P09493-10 E40K, sequence (P09493 other isoform, or with tags, fused parts or gaps E40K): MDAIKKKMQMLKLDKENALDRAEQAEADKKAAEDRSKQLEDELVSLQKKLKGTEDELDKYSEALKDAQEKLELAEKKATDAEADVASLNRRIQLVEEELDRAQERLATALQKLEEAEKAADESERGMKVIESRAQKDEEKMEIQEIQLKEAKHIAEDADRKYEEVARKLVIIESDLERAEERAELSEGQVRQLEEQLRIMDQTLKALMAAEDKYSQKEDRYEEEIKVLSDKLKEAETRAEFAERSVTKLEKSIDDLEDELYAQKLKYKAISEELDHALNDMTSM
tfcp2_human TFCP2, sequence (Q12800 whole entry): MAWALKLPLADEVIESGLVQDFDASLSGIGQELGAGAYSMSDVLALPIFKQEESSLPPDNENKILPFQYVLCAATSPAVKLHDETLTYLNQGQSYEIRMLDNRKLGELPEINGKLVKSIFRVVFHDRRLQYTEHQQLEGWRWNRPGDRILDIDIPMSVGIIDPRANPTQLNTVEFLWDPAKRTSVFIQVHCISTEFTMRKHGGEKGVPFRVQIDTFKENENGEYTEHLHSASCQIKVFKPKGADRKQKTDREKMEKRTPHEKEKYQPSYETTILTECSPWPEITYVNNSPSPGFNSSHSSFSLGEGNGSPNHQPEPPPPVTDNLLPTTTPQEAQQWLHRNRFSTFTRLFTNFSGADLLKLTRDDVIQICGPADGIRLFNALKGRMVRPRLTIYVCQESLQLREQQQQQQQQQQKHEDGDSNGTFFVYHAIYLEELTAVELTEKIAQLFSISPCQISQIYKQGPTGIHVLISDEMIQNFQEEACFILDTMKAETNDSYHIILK
goga2_human GOLGA2, sequence (Q08379 whole entry): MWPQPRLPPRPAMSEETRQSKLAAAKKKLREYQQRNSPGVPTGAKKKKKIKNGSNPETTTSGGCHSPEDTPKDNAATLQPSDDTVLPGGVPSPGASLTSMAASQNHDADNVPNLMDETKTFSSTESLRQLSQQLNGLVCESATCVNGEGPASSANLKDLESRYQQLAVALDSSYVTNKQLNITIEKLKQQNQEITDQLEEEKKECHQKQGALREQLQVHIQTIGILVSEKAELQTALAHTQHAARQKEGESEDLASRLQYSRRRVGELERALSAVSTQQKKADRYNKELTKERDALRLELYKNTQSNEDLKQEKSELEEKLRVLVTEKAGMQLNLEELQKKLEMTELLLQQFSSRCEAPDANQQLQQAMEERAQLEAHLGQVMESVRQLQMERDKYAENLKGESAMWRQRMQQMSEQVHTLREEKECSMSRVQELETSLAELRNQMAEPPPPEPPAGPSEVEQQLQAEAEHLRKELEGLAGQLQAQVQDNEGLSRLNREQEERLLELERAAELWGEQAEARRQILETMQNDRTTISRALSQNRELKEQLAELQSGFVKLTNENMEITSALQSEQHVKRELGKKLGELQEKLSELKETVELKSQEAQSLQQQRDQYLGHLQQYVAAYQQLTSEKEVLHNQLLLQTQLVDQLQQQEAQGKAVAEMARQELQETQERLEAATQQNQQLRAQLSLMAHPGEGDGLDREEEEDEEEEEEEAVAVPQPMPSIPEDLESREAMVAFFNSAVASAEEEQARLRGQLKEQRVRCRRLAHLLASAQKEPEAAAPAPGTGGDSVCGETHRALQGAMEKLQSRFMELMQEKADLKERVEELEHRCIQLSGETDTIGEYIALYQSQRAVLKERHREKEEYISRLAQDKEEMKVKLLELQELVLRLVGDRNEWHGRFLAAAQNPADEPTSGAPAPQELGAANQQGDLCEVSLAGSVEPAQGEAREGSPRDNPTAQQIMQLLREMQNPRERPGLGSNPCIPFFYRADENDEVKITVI
tsg10_human TSGA10, sequence (Q9BZW7 whole entry): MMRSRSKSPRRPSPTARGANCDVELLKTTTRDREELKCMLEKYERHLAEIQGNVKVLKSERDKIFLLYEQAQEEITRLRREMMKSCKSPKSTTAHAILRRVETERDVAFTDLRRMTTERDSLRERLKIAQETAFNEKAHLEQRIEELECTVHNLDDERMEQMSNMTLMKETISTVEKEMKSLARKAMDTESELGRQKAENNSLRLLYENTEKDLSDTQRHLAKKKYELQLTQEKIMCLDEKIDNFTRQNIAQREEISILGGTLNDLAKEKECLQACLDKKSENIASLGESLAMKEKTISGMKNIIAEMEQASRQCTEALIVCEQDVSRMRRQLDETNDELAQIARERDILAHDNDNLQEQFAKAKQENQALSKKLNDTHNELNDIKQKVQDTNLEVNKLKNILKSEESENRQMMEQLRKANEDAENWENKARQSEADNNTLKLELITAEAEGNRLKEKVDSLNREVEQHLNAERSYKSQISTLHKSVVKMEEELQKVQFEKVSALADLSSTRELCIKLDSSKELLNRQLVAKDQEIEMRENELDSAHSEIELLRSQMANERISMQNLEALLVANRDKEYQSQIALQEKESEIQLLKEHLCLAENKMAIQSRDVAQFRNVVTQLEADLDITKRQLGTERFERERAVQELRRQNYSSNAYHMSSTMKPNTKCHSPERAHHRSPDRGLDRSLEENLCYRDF
ifit3_human IFIT3, sequence (O14879 whole entry): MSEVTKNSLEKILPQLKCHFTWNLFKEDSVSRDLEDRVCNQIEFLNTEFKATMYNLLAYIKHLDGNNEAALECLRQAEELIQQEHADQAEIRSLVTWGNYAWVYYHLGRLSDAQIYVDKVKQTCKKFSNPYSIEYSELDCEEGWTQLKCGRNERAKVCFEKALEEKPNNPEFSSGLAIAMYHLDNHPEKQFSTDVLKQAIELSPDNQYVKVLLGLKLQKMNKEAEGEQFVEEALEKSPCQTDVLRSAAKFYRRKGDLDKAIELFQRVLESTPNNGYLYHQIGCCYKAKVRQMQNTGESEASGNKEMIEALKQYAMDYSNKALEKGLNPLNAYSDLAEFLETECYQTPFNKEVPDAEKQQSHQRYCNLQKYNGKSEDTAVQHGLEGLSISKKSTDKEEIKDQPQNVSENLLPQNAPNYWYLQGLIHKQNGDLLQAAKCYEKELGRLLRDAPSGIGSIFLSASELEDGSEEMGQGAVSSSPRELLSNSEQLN
MTUS2, Q5JR59-3, sequence (Q5JR59 other isoform, or with tags, fused parts or gaps): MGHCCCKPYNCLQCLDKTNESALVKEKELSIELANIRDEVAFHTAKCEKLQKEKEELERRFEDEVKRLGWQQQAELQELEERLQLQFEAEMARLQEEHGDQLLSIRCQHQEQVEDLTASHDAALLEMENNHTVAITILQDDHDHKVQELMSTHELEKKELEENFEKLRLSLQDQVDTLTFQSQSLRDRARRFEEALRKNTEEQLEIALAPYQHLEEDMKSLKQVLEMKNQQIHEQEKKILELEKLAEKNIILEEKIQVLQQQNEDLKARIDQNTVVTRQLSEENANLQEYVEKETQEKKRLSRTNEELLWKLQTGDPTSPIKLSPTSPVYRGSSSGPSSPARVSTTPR
hem1_human ALAS1, sequence (P13196 whole entry): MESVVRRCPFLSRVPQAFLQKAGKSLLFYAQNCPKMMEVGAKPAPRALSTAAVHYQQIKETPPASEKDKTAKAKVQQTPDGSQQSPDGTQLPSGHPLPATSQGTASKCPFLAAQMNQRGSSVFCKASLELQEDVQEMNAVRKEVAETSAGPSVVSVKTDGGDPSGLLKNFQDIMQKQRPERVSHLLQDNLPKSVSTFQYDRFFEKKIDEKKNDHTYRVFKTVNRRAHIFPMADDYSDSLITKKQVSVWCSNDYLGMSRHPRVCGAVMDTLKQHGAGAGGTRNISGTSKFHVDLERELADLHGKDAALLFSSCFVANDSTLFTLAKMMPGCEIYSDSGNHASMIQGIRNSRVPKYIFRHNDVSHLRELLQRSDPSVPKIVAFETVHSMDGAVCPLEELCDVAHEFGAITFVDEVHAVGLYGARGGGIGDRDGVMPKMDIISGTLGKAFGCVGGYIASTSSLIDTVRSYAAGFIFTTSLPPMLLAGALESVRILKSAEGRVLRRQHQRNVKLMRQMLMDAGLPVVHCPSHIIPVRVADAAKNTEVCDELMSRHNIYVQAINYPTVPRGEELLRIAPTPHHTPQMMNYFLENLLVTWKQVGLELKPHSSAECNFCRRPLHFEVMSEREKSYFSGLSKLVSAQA
Carbonic anhydrase 1 (Homo sapiens), P00915 R247H, sequence (P00915 whole entry R247H): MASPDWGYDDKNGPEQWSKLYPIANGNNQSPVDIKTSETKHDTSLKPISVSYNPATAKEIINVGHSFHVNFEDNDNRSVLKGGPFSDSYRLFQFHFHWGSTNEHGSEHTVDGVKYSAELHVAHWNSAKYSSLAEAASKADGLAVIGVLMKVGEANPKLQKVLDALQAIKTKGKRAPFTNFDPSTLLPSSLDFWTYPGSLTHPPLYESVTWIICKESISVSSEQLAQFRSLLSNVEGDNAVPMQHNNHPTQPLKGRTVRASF
CAGE1, Q8TC20-4, sequence (Q8TC20 other isoform, or with tags, fused parts or gaps): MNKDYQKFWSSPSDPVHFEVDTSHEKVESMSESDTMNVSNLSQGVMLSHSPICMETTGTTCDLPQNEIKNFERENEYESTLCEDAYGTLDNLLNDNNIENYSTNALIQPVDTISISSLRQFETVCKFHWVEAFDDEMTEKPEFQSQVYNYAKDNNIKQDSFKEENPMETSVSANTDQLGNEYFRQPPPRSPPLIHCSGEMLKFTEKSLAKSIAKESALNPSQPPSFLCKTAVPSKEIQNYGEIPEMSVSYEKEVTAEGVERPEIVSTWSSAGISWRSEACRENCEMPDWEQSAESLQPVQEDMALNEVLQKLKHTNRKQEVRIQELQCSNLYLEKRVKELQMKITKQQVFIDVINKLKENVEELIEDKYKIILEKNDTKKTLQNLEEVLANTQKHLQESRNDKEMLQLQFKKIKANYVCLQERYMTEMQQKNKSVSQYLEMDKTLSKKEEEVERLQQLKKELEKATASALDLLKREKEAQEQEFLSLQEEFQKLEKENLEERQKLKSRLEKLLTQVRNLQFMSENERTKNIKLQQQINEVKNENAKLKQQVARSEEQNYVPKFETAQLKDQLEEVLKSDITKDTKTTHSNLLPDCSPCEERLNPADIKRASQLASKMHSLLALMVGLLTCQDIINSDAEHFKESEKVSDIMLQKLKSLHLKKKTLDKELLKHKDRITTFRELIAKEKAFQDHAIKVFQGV

Substance: Actin, cytoplasmic 1 (Homo sapiens) (from UniProt P60709) E364K
effect of a mutation on the interaction (cap2_human CAP2): disrupting interaction strength
effect of a mutation on the interaction (cof2_human CFL2): disrupting interaction strength

Substance: Carbonic anhydrase 1 (Homo sapiens), P00915 H68R
effect of a mutation on the interaction (tfcp2_human TFCP2 [1]): with no effect

Substance: Parafibromin (Homo sapiens) (from UniProt Q6P1J9) L64P
effect of a mutation on the interaction (goga2_human GOLGA2 [2]): disrupting interaction strength
effect of a mutation on the interaction (cep70_human CEP70): disrupting interaction strength
effect of a mutation on the interaction (tsg10_human TSGA10): disrupting interaction strength
effect of a mutation on the interaction (tfcp2_human TFCP2 [3]): disrupting interaction strength
effect of a mutation on the interaction (fsd2_human FSD2): disrupting interaction strength
effect of a mutation on the interaction (hem1_human ALAS1): disrupting interaction strength
effect of a mutation on the interaction (kash5_human KASH5): disrupting interaction strength
effect of a mutation on the interaction (MTUS2, Q5JR59-3): disrupting interaction strength

Substance: Voltage-dependent L-type calcium channel subunit beta-4 (Homo sapiens) (from UniProt O00305) R468Q
effect of a mutation on the interaction (efhc2_human EFHC2): with no effect

The next lines start with results.

effect of a mutation on the interaction (tfcp2_human TFCP2 [1]): with no effect
Substance: Carbonic anhydrase 1 (Homo sapiens), P00915 R247H

effect of a mutation on the interaction (goga2_human GOLGA2 [2]): disrupting interaction strength
effect of a mutation on the interaction (cep70_human CEP70): disrupting interaction strength
effect of a mutation on the interaction (tsg10_human TSGA10): disrupting interaction strength
effect of a mutation on the interaction (tfcp2_human TFCP2 [3]): disrupting interaction strength
effect of a mutation on the interaction (fsd2_human FSD2): disrupting interaction strength
effect of a mutation on the interaction (hem1_human ALAS1): disrupting interaction strength
effect of a mutation on the interaction (kash5_human KASH5): disrupting interaction strength
effect of a mutation on the interaction (MTUS2, Q5JR59-3): disrupting interaction strength
Substance: Parafibromin (Homo sapiens) (from UniProt Q6P1J9) R91P

effect of a mutation on the interaction (SYNE4, Q8N205-2): with no effect
effect of a mutation on the interaction (tmm79_human TMEM79 [4]): disrupting interaction strength
effect of a mutation on the interaction (smim3_human SMIM3 [5]): causing an interaction
effect of a mutation on the interaction (tmm79_human TMEM79 [6]): with no effect
effect of a mutation on the interaction (smim3_human SMIM3 [7]): with no effect
Substance: Surfactant protein C (Homo sapiens) (from UniProt P11686) C189G

effect of a mutation on the interaction (SYNE4, Q8N205-2): with no effect
effect of a mutation on the interaction (tmm79_human TMEM79 [4]): disrupting interaction strength
effect of a mutation on the interaction (smim3_human SMIM3 [5]): causing an interaction
effect of a mutation on the interaction (tmm79_human TMEM79 [6]): with no effect
effect of a mutation on the interaction (smim3_human SMIM3 [7]): with no effect
Substance: Surfactant protein C (Homo sapiens) (from UniProt P11686) Y104H

effect of a mutation on the interaction (kxdl1_human KXD1): with no effect
effect of a mutation on the interaction (TNNT1, P13805-3): with no effect
effect of a mutation on the interaction (ifit3_human IFIT3 [8]): causing an interaction
effect of a mutation on the interaction (syce1_human SYCE1): with no effect
effect of a mutation on the interaction (tfpt_human TFPT): with no effect
effect of a mutation on the interaction (ifit3_human IFIT3 [9]): with no effect
effect of a mutation on the interaction (md1l1_human MAD1L1): with no effect
effect of a mutation on the interaction (goga2_human GOLGA2 [10]): disrupting interaction strength
Substance: Tropomyosin alpha-1 chain (Homo sapiens), P09493-10 E40K
effect of a mutation on the interaction (CAGE1, Q8TC20-4): with no effect

effect of a mutation on the interaction (efhc2_human EFHC2): with no effect
Substance: Voltage-dependent L-type calcium channel subunit beta-4 (Homo sapiens) (from UniProt O00305) C104F
